Read-outs that look alike come from different tables or passages of the source.
Key:
[1] = molecular target: Streptococcus pyogenes enolase, wild type (WT-Sen) (Streptococcus pyogenes (Group A, isolate AP53)); experiment: AUC
[2] = molecular target: Streptococcus pyogenes enolase, wild type (WT-Sen) (Streptococcus pyogenes (Group A, isolate AP53)); experiment: AUC; remark: listed apart in the source
[3] = molecular target: Streptococcus pyogenes enolase, wild type (WT-Sen) (Streptococcus pyogenes (Group A, isolate AP53)); experiment: cryo-EM structure
[4] = molecular target: DOPG/Sen (the Sen variants of Figure 5A-D on DOPG vesicles); experiment: flow cytometry of phospholipid vesicles

Streptococcus pyogenes enolase, wild type (WT-Sen) (enzyme), sequence (A2RFE3 whole entry): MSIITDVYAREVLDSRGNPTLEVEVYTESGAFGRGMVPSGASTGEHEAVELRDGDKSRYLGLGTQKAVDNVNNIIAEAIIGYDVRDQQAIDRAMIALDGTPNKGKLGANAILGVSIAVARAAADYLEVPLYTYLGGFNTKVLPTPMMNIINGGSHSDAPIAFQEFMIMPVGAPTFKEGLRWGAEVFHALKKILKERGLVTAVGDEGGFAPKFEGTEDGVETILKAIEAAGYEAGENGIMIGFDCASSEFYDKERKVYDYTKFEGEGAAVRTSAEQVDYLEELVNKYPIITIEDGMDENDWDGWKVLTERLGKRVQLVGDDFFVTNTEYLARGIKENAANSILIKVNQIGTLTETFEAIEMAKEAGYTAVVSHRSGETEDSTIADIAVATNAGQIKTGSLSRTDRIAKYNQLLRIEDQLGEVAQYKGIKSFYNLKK

| Substance | percent as octamer [1] | stoichiometry N [1] | percent as octamer [2] | stoichiometry N [2] | stoichiometry N [3] | percent of vesicles in the gate that defines DOPG/Sen bound to hPg [4] |
| --- | --- | --- | --- | --- | --- | --- |
| Streptococcus pyogenes enolase, wild type (WT-Sen) (enzyme) | > 95% | 8 | > 95% | 8 | 8 |  |
| human plasminogen (hPg) (natural protein) |  |  |  |  |  | 83 to 93% |
